The data set “gel filtration” deals with the molecule itself. In words: gel filtration. (In general: In gel filtration, larger molecules generally elute earlier.)
The target in data set [1] is T1, keratin 10 helix 1B (human, UniProt P13645 195-296).
T1 construct: Single chain of the K1/K10-1B complex; His6 tag removed with thrombin before gel filtration, light scattering and crystallization; also called K10-1B; K10
The experiment in a line: K1 knob mutants with K10-1B.

Data set [2] has as its target T1, keratin 10 helix 1B. In words: X-ray crystal structure, asymmetric unit. The procedure: The final model of the K1^S233L/K10-1B mutant crystal asymmetric unit contained one K1-1B S233L and one K10-1B molecules. The final Ramachandran statistics were: residues in favorable regions, 99%; in allowed regions, 1%; in outlier regions, 0%. Electrostatics were calculated using PDB2PQR and Adaptive Poisson-Boltzmann Software (APBS). Structural analyses were performed using Coot, UCSF Chimera (Resource for Biocomputing, Visualization, and Informatics, University of California, San Francisco), WHAT IF, ESBRI, and PDBePISA (The European Bioinformatics Institute, European Molecular Biology Laboratory, UK). Figures were prepared using UCSF Chimera and Adobe Illustrator. Atomic coordinates and structure factors have been deposited in the Protein Data Bank under the accession code TBD.
Mutant K1/K10-1B (22.8 mg/ml) in 100 mM Tris-HCl buffer (pH 7.4) containing 200 mM NaCl was crystallized using 100 mM Tris buffer (pH 8.5) containing 1.5M ammonium sulfate and 12% glycerol. Crystals were soaked 1-3 min in a cryoprotectant solution containing 27% glycerol in mother liquor prior to flash-freezing in liquid nitrogen. One native data set on a single crystal was collected (λ=0.9795 Å). The native crystal belonged to the hexagonal space group P6 22 (cell dimensions: a=93.29 Å, b=93.29 Å, c=124.74 Å, α=β=90, γ=120). […]

Data set [3] concerns the molecule itself. The experiment in a line: in vitro filament assembly, negative-stain electron microscopy. The procedure: Filament assembly was terminated after 10 min by adding stop buffer (0.2% glutaraldehyde, 20 mM KCl, 0.7 mM NaHPO). Filament samples were immediately applied to a Carbon type B-400 mesh-Copper grid charged with Pelco easiGlow (Ted Pella, Redding, Calif.) at 25 mA for 30s, and negatively stained using 2% aqueous uranyl acetate. Images were captured with a Talos L120C Electron Microscope from FEI (Hillsboro, Oreg.).
Protein production and purification: Full-length wild-type K1, K10, K8, K18, and vimentin constructs in pET-21a(+) or pET-24a(+) based plasmids are used. K1, K8, and vimentin knob mutants (both individual [FA, LA] and double [FLAA] residue mutants) are also used. K10 is expressed in E. coli BL21(DE3)pLysS cells at 20° C. for 72 hours using an autoinduction method. Expression of all other keratins and vimentins occur in E. coli BL21(DE3) cells using LB at 37° C. for 3 hours with 1 mM IPTG for induction. […]
Electron microscopy: Filament samples are immediately applied to a Carbon type B-400 mesh-Copper grid charged with Pelco easiGlow (Ted Pella, Redding, Calif.) at 25 mA for 30s, and negatively stained using 2% aqueous uranyl acetate. […] Images are analyzed for the number, length, width, and shape of filamentous structures formed at each timepoint to evaluate the dynamics of IF assembly in vitro for both wild-type and knob mutant proteins.

Residue numbers refer to the chain shown, from its start. Numbers in names are those of the source.

B1: K1-L318A/10-1B mutant heterodimer (other)
chain 1: NLEPYFESFINNLRRRVDQLKSDQSRLDSELKNMQDMVEDYRNKYEDEINKRTNAENEFVTIKKDVDGAYMTKVDLQAKLDNLQQEIDFLTAAYQAELSQMQTQIS
chain 2: not shown
notes: also called L318A^K1 (LA); K1-L318A/K10-1B
For the molecule B1, the binding result in the data set “gel filtration” is “binds”.

B2: K1 F314A+L318A (FLAA)/K10-1B double mutant heterodimer (other)
chain 1: B1 chain 1 with F89A
chain 2: not shown
notes: also called F314A^K1+L318A^K1
On to B2, for which, in the data set “gel filtration”, the binding result is on record as “no binding”.

B3: K1-F314A/10-1B mutant heterodimer (other)
chain 1: B1 chain 1 with F89A, A93L
chain 2: not shown
notes: also called F314A^K1 (FA); K1-F314A/K10-1B
Turning to B3, the binding result in “gel filtration” is given as “no binding”.

B4: keratin 1 helix 1B F314A+L318A (other)
chain: B1 chain 1 with F89A
notes: Single chain; also called K1-1B mutant F314A+L318A; FLAA
Turning to B4, the binding result with keratin 10 helix 1B [1] is “binds”.

B5: keratin 1 helix 1B S233L (other)
chain: B1 chain 1 with S8L, A93L
notes: Single chain of the mutant complex; also called K1^S233L-1B; K1-1B S233L
For the molecule B5, in the data set with keratin 10 helix 1B [2], the binding result is listed as “binds”.

B6: keratin 1 helix 1B L318A (other)
chain: B1 chain 1
notes: Single chain; also called K1-1B mutant L318A; LA
Turning to B6, in the data set with keratin 10 helix 1B [1], the binding result is “binds”.

B7: full-length wild-type K1/K10 heterodimeric complex (other)
chain 1: MSRQFSSRSGYRSGGGFSSGSAGIINYQRRTTSSSTRRSGGGGGRFSSCGGGGGSFGAGGGFGSRSLVNLGGSKSISISVARGGGRGSGFGGGYGGGGFGGGGFGGGGFGGGGIGGGGFGGFGSGGGGFGGGGFGGGGYGGGYGPVCPPGGIQEVTINQSLLQPLNVEIDPEIQKVKSREREQIKSLNNQFASFIDKVRFLEQQNQVLQTKWELLQQVDTSTRTHNLEPYFESFINNLRRRVDQLKSDQSRLDSELKNMQDMVEDYRNKYEDEINKRTNAENEFVTIKKDVDGAYMTKVDLQAKLDNLQQEIDFLTALYQAELSQMQTQISETNVILSMDNNRSLDLDSIIAEVKAQNEDIAQKSKAEAESLYQSKYEELQITAGRHGDSVRNSKIEISELNRVIQRLRSEIDNVKKQISNLQQSISDAEQRGENALKDAKNKLNDLEDALQQAKEDLARLLRDYQELMNTKLALDLEIATYRTLLEGEESRMSGECAPNVSVSVSTSHTTISGGGSRGGGGGGYGSGGSSYGSGGGSYGSGGGGGGGRGSYGSGGSSYGSGGGSYGSGGGGGGHGSYGSGSSSGGYRGGSGGGGGGSSGGRGSGGGSSGGSIGGRGSSSGGVKSSGGSSSVRFVSTTYSGVTR
chain 2: MSVRYSSSKHYSSSRSGGGGGGGGCGGGGGVSSLRISSSKGSLGGGFSSGGFSGGSFSRGSSGGGCFGGSSGGYGGLGGFGGGSFRGSYGSSSFGGSYGGIFGGGSFGGGSFGGGSFGGGGFGGGGFGGGFGGGFGGDGGLLSGNEKVTMQNLNDRLASYLDKVRALEESNYELEGKIKEWYEKHGNSHQGEPRDYSKYYKTIDDLKNQILNLTTDNANILLQIDNARLAADDFRLKYENEVALRQSVEADINGLRRVLDELTLTKADLEMQIESLTEELAYLKKNHEEEMKDLRNVSTGDVNVEMNAAPGVDLTQLLNNMRSQYEQLAEQNRKDAEAWFNEKSKELTTEIDNNIEQISSYKSEITELRRNVQALEIELQSQLALKQSLEASLAETEGRYCVQLSQIQAQISALEEQLQQIRAETECQNTEYQQLLDIKIRLENEIQTYRSLLEGEGSSGGGGRGGGSFGGGYGGGSSGGGSSGGGHGGGHGGSSGGGYGGGSSGGGSSGGGYGGGSSSGGHGGSSSGGYGGGSSGGGGGGYGGGSSGGGSSSGGGYGGGSSSGGHKSSSSGSVGESSSKGPRY
notes: also called WT K1/K10
For B7, the binding result in data set [3] is given as “binds”.

B8: full-length wild-type K8/K18 heterodimeric complex (other, human)
chain 1: MSIRVTQKSYKVSTSGPRAFSSRSYTSGPGSRISSSSFSRVGSSNFRGGLGGGYGGASGMGGITAVTVNQSLLSPLVLEVDPNIQAVRTQEKEQIKTLNNKFASFIDKVRFLEQQNKMLETKWSLLQQQKTARSNMDNMFESYINNLRRQLETLGQEKLKLEAELGNMQGLVEDFKNKYEDEINKRTEMENEFVLIKKDVDEAYMNKVELESRLEGLTDEINFLRQLYEEEIRELQSQISDTSVVLSMDNSRSLDMDSIIAEVKAQYEDIANRSRAEAESMYQIKYEELQSLAGKHGDDLRRTKTEISEMNRNISRLQAEIEGLKGQRASLEAAIADAEQRGELAIKDANAKLSELEAALQRAKQDMARQLREYQELMNVKLALDIEIATYRKLLEGEESRLESGMQNMSIHTKTTSGYAGGLSSAYGGLTSPGLSYSLGSSFGSGAGSSSFSRTSSSRAVVVKKIETRDGKLVSESSDVLPK
chain 2: MSFTTRSTFSTNYRSLGSVQAPSYGARPVSSAASVYAGAGGSGSRISVSRSTSFRGGMGSGGLATGIAGGLAGMGGIQNEKETMQSLNDRLASYLDRVRSLETENRRLESKIREHLEKKGPQVRDWSHYFKIIEDLRAQIFANTVDNARIVLQIDNARLAADDFRVKYETELAMRQSVENDIHGLRKVIDDTNITRLQLETEIEALKEELLFMKKNHEEEVKGLQAQIASSGLTVEVDAPKSQDLAKIMADIRAQYDELARKNREELDKYWSQQIEESTTVVTTQSAEVGAAETTLTELRRTVQSLEIDLDSMRNLKASLENSLREVEARYALQMEQLNGILLHLESELAQTRAEGQRQAQEYEALLNIKVKLEAEIATYRRLLEDGEDFNLGDALDSSNSMQTIQKTTTRRIVDGKVVSETNDTKVLRH
notes: also called K8/18
For the molecule B8, in data set [3], the binding result is recorded as “binds”.

The record behind these values is patent US20210340531A1 (YALE UNIVERSITY, published 2021).
